B1: SWI5-dependent HO expression protein 3 (Saccharomyces cerevisiae), P38272 (parent)
chain: MSDQDNTQTSSSKLAPHHNIFMANLESSPTKDRNTSSQNASSSRVIESLHDQIDMLTKTNLQLTTQSQNLLSKLELAQSKESKLLENLNLLKNENENLNSIFERKNKKLKELEKDYSELSNRYNEQKEKMDQLSKLAKNSSAIEQSCSEKLQNMEVNYNSLLESQNLYRDHYSDEISKLNEKIGLLELELSNQNLNYGSDTSSNSDIELNLNKFNDSVKDLKSLETEKDSKLSKIITHSLDELNLQSWLNLYQTNENLISTFAEKMDLKDVLKRNDEKISNKGAVVQTLKKNVQTQVESNNADALSSNNAQDMLPIKMVKLRKTPNTNDSSSNGNSSNNKRRSFYTASPLLSSGSIPKSASPVLPGVKRTASVRKPSSSSSKTNVTHNNDPSTSPTISVPPGVTRTVSSTHKKKGNSMVVHGAQS

Variants of: B1
Details: with she2_yeast SHE2, P36068
Sequence of she2_yeast SHE2, P36068 (P36068 whole entry): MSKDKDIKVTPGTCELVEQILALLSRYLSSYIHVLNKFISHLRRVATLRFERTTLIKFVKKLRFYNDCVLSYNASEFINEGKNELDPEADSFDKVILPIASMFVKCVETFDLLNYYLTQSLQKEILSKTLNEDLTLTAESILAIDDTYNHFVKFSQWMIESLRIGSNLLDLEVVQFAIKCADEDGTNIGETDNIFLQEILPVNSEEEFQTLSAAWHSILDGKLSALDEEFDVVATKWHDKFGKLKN

| Variant | effect of a mutation on the interaction |
| --- | --- |
| MSDQDNTQTSSSKLAPHHNIFMANLESSPTKDRNTSSQNASSSRVIESLHDQIDMLTKTNLQLTTQSQNLLSKLELAQSKESKLLENLNLLKNENENLNSIFERKNKKLKELEKDYSELSNRYNEQKEKMDQLSKLAKNSSAIEQSCSEKLQNMEVNYNSLLESQNLYRDHYSDEISKLNEKIGLLELELSNQNLNYGSDTSSNSDIELNLNKFNDSVKDLKSLETEKDSKLSKIITHSLDELNLQSWLNLYQTNENLISTFAEKMDLKDVLKRNDEKISNKGAVVQTLKKNVQTQVESNNADALSSNNAQDMLPIKMVKLRKTPNTNDSSSNGNSSNNKRRSFYTASPLLSSGSIPKSASPVAPGAKRTASVRKPSSSSSKTNVTHNNDPSTSPTISVPPGVTRTVSSTHKKKGNSMVVHGAQS [L364A;V367A] | disrupting interaction |
